Literature values in US11807856B2, “Recombinant Pichia pastoris strain and method for producing active pediocin PA-1” (VIET NAM NATIONAL UNIVERSITY HO CHI MINH CITY, priority 2019, dated 2023).
Where two headings read alike, the source gives them in different places. Ends that are not written are not given here.

Tests used:
[1] = for activity after heat treatment: 100° C. for 60 minutes (1 hour); for antimicrobial activities after heat treatment: 121° C.
[2] = pH 2-8

## native pediocin PA-1: class IIa bacteriocin, 4.6 kDa peptide with 44 amino acids, produced by Pediococcus acidilactici PAC1.0 (KYYGNGVTCGKHSCSVDWGKATTCIINNGAMAWATGGHQGNHKC; ends and bridges not checked; cysteine pairing not given here; UniProt P29430 19-62, looked up)
[1]; listed as prior-art pediocin PA-1
  activity after heat treatment: stable
[1]; produced by Pediococcus acidilactici PAC1.0
  activity after heat treatment: remain its full activities
[1]; 20 minutes treatment, listed as prior-art pediocin PA-1
  antimicrobial activities after heat treatment: lost all activity
[1]; 20 minutes treatment, produced by Pediococcus acidilactici PAC1.0
  antimicrobial activities after heat treatment: completely disappeared
[1]; after 15 minutes
  antimicrobial activities after heat treatment: gradually reduced
[2]
  time stable at pH levels of 2-8: at least 2 hours
